In FireProtDB (doi:10.1021/bi00150a030):

Conditions: Rattus norvegicus, pH 7, Fluorescence, Sodium-Potassium phosphate 0.1 M; for denaturant m value / denaturant midpoint (higher = more stable) / unfolding free energy: 15 °C, GdnHCl; for Tm / change of melting temperature, mutant - wild type (higher = more stable): Thermal

Cytochrome c, somatic wild type, P62898, sequence (P62898 whole entry): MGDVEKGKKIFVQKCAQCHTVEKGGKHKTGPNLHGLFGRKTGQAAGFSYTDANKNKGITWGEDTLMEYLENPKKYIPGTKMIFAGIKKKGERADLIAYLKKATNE
Cytochrome c, somatic Y68F, P62898, sequence (P62898 whole entry Y68F): as the sequence (P62898 whole entry) above, with Y68F counted along it
Cytochrome c, somatic P31A, P62898, sequence (P62898 whole entry P31A): as the sequence (P62898 whole entry) above, with P31A counted along it
Cytochrome c, somatic P31A|Y68F, P62898 P31A Y68F, sequence (P62898 whole entry P31A/Y68F): as the sequence (P62898 whole entry) above, with P31A, Y68F counted along it

Substance	denaturant m value (structure 1I5T)	denaturant midpoint (higher = more stable) (structure 1I5T)	unfolding free energy (structure 1I5T)	Tm (structure 1I5T)	change of melting temperature, mutant - wild type (higher = more stable) (structure 1I5T)	denaturant m value	denaturant midpoint (higher = more stable)	unfolding free energy	Tm
Cytochrome c, somatic P31A, P62898	0.7 kcal/mol/M	5.38 M	3.76 kcal/mol	51 °C	-9 °C				
Cytochrome c, somatic P31A|Y68F, P62898 P31A Y68F	1.16 kcal/mol/M	5.81 M	6.74 kcal/mol	62 °C	2 °C				
Cytochrome c, somatic Y68F, P62898	0.86 kcal/mol/M	8.33 M	7.19 kcal/mol	90 °C	30 °C				
Cytochrome c, somatic wild type, P62898						1.21 kcal/mol/M	7.6 M	9.15 kcal/mol	60 °C
